From US20260242478A1 (published 2026)
Where no end group is shown, it is not given here.

Assays:
[1] = biological target: T1, Anti-CD28 scFv (VH - linker 1 - VL) (biotinylated (site not stated)); experiment: phage ELISA: biotinylated anti-CD28 scFv on neutravidin plate, clonal phage supernatant, anti-M13-HRP detection;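 note: competition format: before phage supernatant was added, wells were preincubated with soluble CD28 protein or with blocking buffer only, and phage were added without an intervening wash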
T1 construct: Captured as biotinylated scFv on neutravidin plates in the panning ELISA
T1 sequence (scFv, as listed by the source): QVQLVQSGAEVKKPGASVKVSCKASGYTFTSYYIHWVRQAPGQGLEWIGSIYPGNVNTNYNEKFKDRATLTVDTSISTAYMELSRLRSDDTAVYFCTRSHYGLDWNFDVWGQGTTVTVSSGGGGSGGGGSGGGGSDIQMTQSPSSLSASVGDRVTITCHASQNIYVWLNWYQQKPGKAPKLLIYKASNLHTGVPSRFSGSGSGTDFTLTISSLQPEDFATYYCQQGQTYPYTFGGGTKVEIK

[2] = biological target: T1, Anti-CD28 scFv (VH - linker 1 - VL); experiment: phage ELISA as above, wells pre-incubated with soluble CD28 (competitor);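 note: ELISA of crude clonal phage supernatants added to wells pre-treated with soluble CD28 in blocking buffer, bound phage read out with HRP-conjugated anti-M13 antibody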
Description: (§1) Clonal phage were harvested as crude supernatants and screened via standard enzyme linked immunosorbent assays (ELISAs). […] Prior to the addition of clonal phage, wells were incubated with blocking buffer and CD28 soluble protein or blocking buffer alone. Without washing or aspirating, clonal phage supernatants were then added to the wells and incubated for a short time. Wells were then washed followed by detection of bound phage using a horse radish peroxidase conjugated anti-M13 antibody.

[3] = biological target: T2, anti-CD28 scFv (VH - linker 1 - VL) (biotinylated (site not stated)); experiment: phage ELISA as above, wells pre-incubated with soluble CD28 as competitor
T2 sequence (scFv, as listed by the source): as above

[4] = biological target: T2, anti-CD28 scFv (VH - linker 1 - VL); experiment: phage ELISA; biotinylated anti-CD28 scFv on neutravidin plate, clonal phage supernatant, anti-M13 HRP detection;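 note: before phage addition, wells were pre-incubated with blocking buffer plus soluble CD28 protein, or blocking buffer only, with no wash in between, signal reflects phage remaining bound after washing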
Description: as §1

[5] = biological target: Anti-CD28 scFv (VH - linker 1 - VL) (biotinylated (site not given)); experiment: phage binding ELISA on anti-CD28 scFv plate; wells pre-incubated with soluble CD28 as competitor;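 note: clonal phage supernatants tested, bound phage read out with an HRP-linked anti-M13 antibody, reference wells received blocking buffer lacking CD28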
Sequence of Anti-CD28 scFv (VH - linker 1 - VL) (biotinylated (site not given)) (scFv, as listed by the source): as above

[6] = biological target: T3, Anti-CD28 scFv (VH - linker 1 - VL) (biotinylated (site not stated)); experiment: phage ELISA as above, wells pre-incubated with soluble CD28 (competitor);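 note: ELISA of crude clonal phage supernatants added to wells pre-treated with soluble CD28 in blocking buffer, bound phage read out with HRP-conjugated anti-M13 antibody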
T3 construct: Biotinylated scFv captured on neutravidin coated plates in the panning ELISA
T3 sequence (scFv, as listed by the source): as above

Question: With LHWCPITMWTYCYY [Phage-409] as the binder, how does the “CD28 scFv signal” value [1] read?
Answer: 1.21

Question: And the “CD28 scFv signal in presence of CD28” value [2]?
Answer: 0.516

Question: With MFWCPKDMWAECFA [Phage-408] as the binder, how does the “CD28 scFv signal” value [1] read?
Answer: 1.26

Question: And the “CD28 scFv signal in presence of CD28” value [2]?
Answer: 0.113

Question: With MDWCPRDMWFECFN [Phage-393] as the binder, how does the “CD28 scFv signal” value [1] read?
Answer: 2.42

Question: And the “CD28 scFv signal in presence of CD28” value [2]?
Answer: 0.778

Question: How did the “CD28 scFv signal” value [1] turn out when MDWCPRDMWTSCFN [Phage-404] was run?
Answer: 1.41

Question: What about the “CD28 scFv signal in presence of CD28” value [2] of the same binder?
Answer: 0.179

Question: For MDWCPRYMWYQCFS [Phage-196], which “CD28 scFv signal in presence of CD28” value [3] is on record?
Answer: 0.357

Question: What about the “CD28 scFv signal” value [4] of the same binder?
Answer: 2.36

Question: What does the source list for MDWCPSYLWDQCFF [Phage-188]?
Answer: CD28 scFv signal in presence of CD28 [3]: 0.079; CD28 scFv signal [4]: 0.083

Question: With MDWCPRAMWDYCFY [Phage-397] as the binder, how does the “CD28 scFv signal” value [1] read?
Answer: 2.11

Question: And the “CD28 scFv signal in presence of CD28” value [2]?
Answer: 0.339

Question: For MDWCPMNLWSECFN [Phage-173], which “CD28 scFv signal in presence of CD28” value [3] is on record?
Answer: 0.124

Question: What about the “CD28 scFv signal” value [4] of the same binder?
Answer: 0.67

Question: For MDWCPRDMWAECFF [Phage-190], which “CD28 scFv signal in presence of CD28” value [3] is on record?
Answer: 2.26

Question: What about the “CD28 scFv signal” value [4] of the same binder?
Answer: 2.69

Question: Which results are given for VDWCPRYLWHVCYN [Phage-189]?
Answer: CD28 scFv signal in presence of CD28 [3]: 0.061; CD28 scFv signal [4]: 0.065

Question: MDWCPLDMWVLCFA [Phage-401] was tested. Which “CD28 scFv signal” value [1] did it give?
Answer: 1.84

Question: And the “CD28 scFv signal in presence of CD28” value [2]?
Answer: 0.169

Question: Which “CD28 scFv signal in presence of CD28” value [3] does the source give for MDWCPAYLWAECFS [Phage-175] here?
Answer: 0.12

Question: And the “CD28 scFv signal” value [4]?
Answer: 0.64

Question: With MDWCPRDMWYECFN [Phage-191] as the binder, how does the “CD28 scFv signal in presence of CD28” value [3] read?
Answer: 0.235

Question: What about the “CD28 scFv signal” value [4] of the same binder?
Answer: 2.56

Question: How did the “CD28 scFv signal” value [1] turn out when MSWCPRFMWHECFN [Phage-411] was run?
Answer: 1.11

Question: What about the “CD28 scFv signal in presence of CD28” value [2] of the same binder?
Answer: 0.246

Question: For MHWCPINLWNECFS [Phage-184], which “CD28 scFv signal in presence of CD28” value [3] is on record?
Answer: 0.098

Question: What about the “CD28 scFv signal” value [4] of the same binder?
Answer: 0.316

Question: Which results are given for MDWCPVSLWDHCFN [Phage-177]?
Answer: CD28 scFv signal in presence of CD28 [3]: 0.1; CD28 scFv signal [4]: 0.616

Question: For MYWCPRDLWDVCFN [Phage-181], which “CD28 scFv signal in presence of CD28” value [3] is on record?
Answer: 0.102

Question: And the “CD28 scFv signal” value [4]?
Answer: 0.512

B1: Phage-278 (peptide)
peptide: MDWCPRSIWYLCFN
modifications: cysteine pairing not given here; also: displayed on phage as fusion to pIII, fusion limits and linker not given here
notes: Clonal phage of the Peptide-9 library, tested as crude phage supernatant; not shown: pIII of the bacteriophage
Question: For B1, which “CD28 scFv signal in presence of CD28” value [5] is on record?
Answer: 1.34

Question: How did the “CD28 scFv signal in presence of CD28” value [3] turn out when MDWCPWILWNECFN [Phage-179] was run?
Answer: 0.137

Question: What about the “CD28 scFv signal” value [4] of the same binder?
Answer: 0.581

Question: How did the “CD28 scFv signal” value [1] turn out when MHWCPTYMWSECFA [Phage-400] was run?
Answer: 1.84

Question: And the “CD28 scFv signal in presence of CD28” value [2]?
Answer: 0.161

Question: Which “CD28 scFv signal” value [1] does the source give for MDWCPFDMWADCFF [Phage-391] here?
Answer: 2.53

Question: And the “CD28 scFv signal in presence of CD28” value [2]?
Answer: 0.215

Question: MDWCPKHMWFMCFN [Phage-195] was tested. Which “CD28 scFv signal in presence of CD28” value [3] did it give?
Answer: 0.372

Question: What about the “CD28 scFv signal” value [4] of the same binder?
Answer: 2.4

Question: For DVWCPKYMWSLCFN [Phage-192], which “CD28 scFv signal in presence of CD28” value [3] is on record?
Answer: 0.418

Question: What about the “CD28 scFv signal” value [4] of the same binder?
Answer: 2.53

Question: With MHWCPRSLWNECYF [Phage-182] as the binder, how does the “CD28 scFv signal in presence of CD28” value [3] read?
Answer: 0.115

Question: And the “CD28 scFv signal” value [4]?
Answer: 0.456

Question: Which “CD28 scFv signal” value [1] does the source give for MDWCPSDMWSNCFN [Phage-413] here?
Answer: 1.07

Question: What about the “CD28 scFv signal in presence of CD28” value [2] of the same binder?
Answer: 0.121

Question: For MNWCPIDMWTECFN [Phage-406], which “CD28 scFv signal” value [1] is on record?
Answer: 1.4

Question: And the “CD28 scFv signal in presence of CD28” value [2]?
Answer: 0.175

Question: What does the source list for IDWCPRYMWHECFF [Phage-410]?
Answer: CD28 scFv signal [1]: 1.18; CD28 scFv signal in presence of CD28 [2]: 0.164

Question: MDWCPMDMWVNCFN [Phage-193] was tested. Which “CD28 scFv signal in presence of CD28” value [3] did it give?
Answer: 0.277

Question: What about the “CD28 scFv signal” value [4] of the same binder?
Answer: 2.52

Question: Which results are given for MDWCPMYMWHKCFH [Phage-415]?
Answer: CD28 scFv signal [1]: 0.987; CD28 scFv signal in presence of CD28 [2]: 0.168

Question: Which “CD28 scFv signal” value [1] does the source give for MDWCPRHMWHECFH [Phage-402] here?
Answer: 1.81

Question: And the “CD28 scFv signal in presence of CD28” value [2]?
Answer: 0.171

Question: What does the source list for MDWCPRYMWSDCFF [Phage-394]?
Answer: CD28 scFv signal [1]: 2.28; CD28 scFv signal in presence of CD28 [2]: 0.377

Question: Which results are given for MDWCPSDLWHECFH [Phage-176]?
Answer: CD28 scFv signal in presence of CD28 [3]: 0.164; CD28 scFv signal [4]: 0.629

Question: Which “CD28 scFv signal” value [1] does the source give for QHWCPRDMWNDCYA [Phage-412] here?
Answer: 1.08

Question: And the “CD28 scFv signal in presence of CD28” value [2]?
Answer: 0.149

Question: With MDWCPRSMWDSCFN [Phage-399] as the binder, how does the “CD28 scFv signal” value [1] read?
Answer: 2.02

Question: And the “CD28 scFv signal in presence of CD28” value [2]?
Answer: 0.142

Question: For MDWCPMSMWAFCFD [Phage-405], which “CD28 scFv signal” value [1] is on record?
Answer: 1.41

Question: And the “CD28 scFv signal in presence of CD28” value [2]?
Answer: 0.16

Question: MHWCPRYLWDECFN [Phage-180] was tested. Which “CD28 scFv signal in presence of CD28” value [3] did it give?
Answer: 0.127

Question: And the “CD28 scFv signal” value [4]?
Answer: 0.55

Question: With MDWCPSDMWHECYA [Phage-194] as the binder, how does the “CD28 scFv signal in presence of CD28” value [3] read?
Answer: 0.2

Question: And the “CD28 scFv signal” value [4]?
Answer: 2.47

Question: Which “CD28 scFv signal in presence of CD28” value [3] does the source give for QDWCPTYLWHHCFN [Phage-186] here?
Answer: 0.122

Question: What about the “CD28 scFv signal” value [4] of the same binder?
Answer: 0.123

B2: Phage-265 (peptide)
peptide: MDWCPRFMWDLCFA
modifications: cysteine pairing not given here; also: displayed on phage as pIII fusion, fusion limits and linker not given here
notes: as for B1
Question: For B2, which “CD28 scFv signal in presence of CD28” value [5] is on record?
Answer: 0.725

Question: Which results are given for LYWCPRDMWAYCYS [Phage-414]?
Answer: CD28 scFv signal [1]: 1.02; CD28 scFv signal in presence of CD28 [2]: 0.157

Question: Which results are given for MSWCPWDMWNECFA [Phage-403]?
Answer: CD28 scFv signal [1]: 1.52; CD28 scFv signal in presence of CD28 [2]: 0.108

Question: Which “CD28 scFv signal in presence of CD28” value [3] does the source give for MDWCPKHLWNECFN [Phage-174] here?
Answer: 0.105

Question: What about the “CD28 scFv signal” value [4] of the same binder?
Answer: 0.663

Question: For MDWCPSDMWANCFF [Phage-389], which “CD28 scFv signal in presence of CD28” value [6] is on record?
Answer: 0.316

Question: Which “CD28 scFv signal” value [1] does the source give for MNWCPIHMWNQCFA [Phage-407] here?
Answer: 1.37

Question: What about the “CD28 scFv signal in presence of CD28” value [2] of the same binder?
Answer: 0.133

Question: Which results are given for IDWCPRDLWALCFN [Phage-183]?
Answer: CD28 scFv signal in presence of CD28 [3]: 0.129; CD28 scFv signal [4]: 0.37

Question: Which “CD28 scFv signal in presence of CD28” value [3] does the source give for MDWCPPYLWYECFA [Phage-172] here?
Answer: 0.094

Question: What about the “CD28 scFv signal” value [4] of the same binder?
Answer: 0.692

Question: What does the source list for TDWCPRDMWYLCFN [Phage-396]?
Answer: CD28 scFv signal [1]: 2.11; CD28 scFv signal in presence of CD28 [2]: 0.301

Question: What does the source list for MDWCPKDMWAECFN [Phage-395]?
Answer: CD28 scFv signal [1]: 2.11; CD28 scFv signal in presence of CD28 [2]: 0.457

Question: For IGKLTLCLNADLVI [Phage-187], which “CD28 scFv signal in presence of CD28” value [3] is on record?
Answer: 0.1

Question: What about the “CD28 scFv signal” value [4] of the same binder?
Answer: 0.116

Question: Which “CD28 scFv signal” value [1] does the source give for MDWCPRNMWNECFF [Phage-398] here?
Answer: 2.1

Question: And the “CD28 scFv signal in presence of CD28” value [2]?
Answer: 0.43

Question: How did the “CD28 scFv signal in presence of CD28” value [3] turn out when LDWCPRDLWHVCFF [Phage-178] was run?
Answer: 0.105

Question: What about the “CD28 scFv signal” value [4] of the same binder?
Answer: 0.61
